According to publication PMC4788497 (Methods in molecular biology (Clifton, N.J.), 2014):

Target: the molecule itself
Test: SEC

B1: DGCR8 NC1 (amino acid residues 276-751 of human DGCR8), Fe(III) heme-bound dimer (domain or fragment, UniProt Q8WYQ5 276-751, looked up)
chain: DGETSVQPMMTKIKTVLKSRGRPPTEPLPDGWIMTFHNSGVPVYLHRESRVVTWSRPYFLGTGSIRKHDPPLSSIPCLHYKKMKDNEEREQSSDLTPSGDVSPVKPLSRSAELEFPLDEPDSMGADPGPPDEKDPLGAEAAPGALGQVKAKVEVCKDESVDLEEFRSYLEKRFDFEQVTVKKFRTWAERRQFNREMKRKQAESERPILPANQKLITLSVQDAPTKKEFVINPNGKSEVCILHEYMQRVLKVRPVYNFFECENPSEPFGASVTIDGVTYGSGTASSKKLAKNKAARATLEILIPDFVKQTSEEKPKDSEELEYFNHISIEDSRVYELTSKAGLLSPYQILHECLKRNHGMGDTSIKFEVVPGKNQKSEYVMACGKHTVRGWCKNKRVGKQLASQKILQLLHPHVKNWGSLLRMYGRESSKMVKQETSDKSVIELQQYAKKNKPNLHILSKLQEEMKRLAEEREETRK
  binding result: binds
